According to publication PMC12618784:

Tests used:
Experiment in all cases: TurboID biotin proximity labelling with mass spectrometry
Settings in all cases: 3rd instar larval muscle tissue (mef2-Gal4); parent: 1
SesB = biological target: SesB
ATPsynD, SynO = biological target: ATPsynD, SynO
Prohibitin2 = biological target: Prohibitin2
Troponin-C = biological target: Troponin-C

## Dmel\Tmem43wt::TurboID (from UniProt Q9VSB9) p.S333L
SesB
  ratio to parent: 0.29
ATPsynD, SynO
  ratio to parent: 0.3
Prohibitin2
  ratio to parent: 0.18
Troponin-C
  ratio to parent: 0.07
